Test results as given in publication PMC2761383, “Structural and functional characteristics of xenavidin, the first frog avidin from Xenopus tropicalis” (BMC Structural Biology, 2009).

What was measured:
[1] = biological target: xenavidin (Xenopus tropicalis); assay: SEC; Superdex 200 10/300 GL, 50 mM sodium phosphate pH 7.0, 650 mM NaCl; samples with and without an excess of biotin
[2] = biological target: xenavidin (Xenopus tropicalis); assay: crystal structure; sitting-drop vapour diffusion at 22°C, with and without D-biotin; space group R32, dimer in the asymmetric unit; 1.7 Å
[3] = biological target: xenavidin, acetylated in vitro (Xenopus tropicalis); assay: SDS-PAGE thermostability assay; acetylated protein saturated with biotin, thermal treatment for 20 min in the presence of SDS and 2-mercaptoethanol, SDS-PAGE with Coomassie staining

Row | Substance | stoichiometry N [1] | stoichiometry N [2] | stoichiometry N [3]
1 | xenavidin (natural protein) | 4 | 4 | –
2 | xenavidin, acetylated in vitro (natural protein) | – | – | 4
